# Test system: LOX-IMVI cells
# Assay: Secreted factor rescue screen on LOX-IMVI (FIG. 23)
# Format: cell-based
# Source text: FIG. 23 A-C.|Vemurafenib resistant and sensitive cell lines can be used to determine and anticipate paths to resistance in patients. LOX-IMVI cells were rescued by FGF1, FGF2, EGF, and HGF in the screen. A, LOX-IMVI VemR cells were re-sensitized to PLX4032 by FGFR inhibition. B, Dual resistant LOX-IMVI VemR/FGFRi (i.e., resistant to vemurafenib and FGFR inhibitor) cells were re-sensitized to PLX4032 by EGFR inhibition. C, Triple resistant LOX-IMVI VemR/FGFRi/Erlotinib cells were re-sensitized to PLX4032 by MET inhibition.
molecule,measurement,value
"EGF: secreted factor (protein, UniProt P01133 23-1207, looked up, Pro-epidermal growth factor) Pro-epidermal growth factor: PQHWSCPEGTLAGNGNSTCVGPAPFLIFSHGNSIFRIDTEGTNYEQLVVDAGVSVIMDFHYNEKRIYWVDLERQLLQRVFLNGSRQERVCNIEKNVSGMAINWINEEVIWSNQQEGIITVTDMKGNNSHILLSALKYPANVAVDPVERFIFWSSEVAGSLYRADLDGVGVKALLETSEKITAVSLDVLDKRLFWIQYNREGSNSLICSCDYDGGSVHISKHPTQHNLFAMSLFGDRIFYSTWKMKTIWIANKHTGKDMVRINLHSSFVPLGELKVVHPLAQPKAEDDTWEPEQKLCKLRKGNCSSTVCGQDLQSHLCMCAEGYALSRDRKYCEDVNECAFWNHGCTLGCKNTPGSYYCTCPVGFVLLPDGKRCHQLVSCPRNVSECSHDCVLTSEGPLCFCPEGSVLERDGKTCSGCSSPDNGGCSQLCVPLSPVSWECDCFPGYDLQLDEKSCAASGPQPFLLFANSQDIRHMHFDGTDYGTLLSQQMGMVYALDHDPVENKIYFAHTALKWIERANMDGSQRERLIEEGVDVPEGLAVDWIGRRFYWTDRGKSLIGRSDLNGKRSKIITKENISQPRGIAVHPMAKRLFWTDTGINPRIESSSLQGLGRLVIASSDLIWPSGITIDFLTDKLYWCDAKQSVIEMANLDGSKRRRLTQNDVGHPFAVAVFEDYVWFSDWAMPSVMRVNKRTGKDRVRLQGSMLKPSSLVVVHPLAKPGADPCLYQNGGCEHICKKRLGTAWCSCREGFMKASDGKTCLALDGHQLLAGGEVDLKNQVTPLDILSKTRVSEDNITESQHMLVAEIMVSDQDDCAPVGCSMYARCISEGEDATCQCLKGFAGDGKLCSDIDECEMGVPVCPPASSKCINTEGGYVCRCSEGYQGDGIHCLDIDECQLGEHSCGENASCTNTEGGYTCMCAGRLSEPGLICPDSTPPPHLREDDHHYSVRNSDSECPLSHDGYCLHDGVCMYIEALDKYACNCVVGYIGERCQYRDLKWWELRHAGHGQQQKVIVVAVCVVVLVMLLLLSLWGAHYYRTQKLLSKNPKNPYEESSRDVRSRRPADTEDGMSSCPQPWFVVIKEHQDLKNGGQPVAGEDGQAADGSMQPTSWRQEPQLCGMGTEQGCWIPVSSDKGSCPQVMERSFHMPSYGTQTLEGGVEKPHSLLSANPLWQQRALDPPHQMELTQ",rescue in the secreted factor screen,rescued

# From US20170204187A1, “METHODS OF TREATING AND PREVENTING CANCER DRUG RESISTANCE” (Genentech, Inc., priority 2014, published 2017)
